B1: LINE1-full (parent)
chain: UACGUAGGUGGUUUUCCCCUGAUAGUGCUAAGGGGGCCUGGAAGUUUGGACUGGGCAGAGCUCAACACAGCGUGGCAAAGUGGCUGUGGCUAGACUGCCUCUCUGGAUUCCUCGUCACUCAGCAGGGCAUCUCUGAGAGAAAUGCC

Variants of: B1
Test: self-cleavage, relative activity (ratio to wild type); higher = more cleavage; in vitro, sequencing; the parent is a self-cleaving ribozyme

Variant | self-cleavage
UACGUAGGUGGUUUUCCCCUGAUAGUGCUAAGGGGGCCUGGAAGUUUGGACUGGGCAGAGCUCAACACAGCGUGGUAAGGUGGCUGUGGCUAGACUGCCUCUCUGGAUUCCUCGUCACUCAGCAGGGCAUCUCUGAGAGAAAUGCC [C76U A79G] | 2.1
UACGUAGGUGGUUUUCCCCUGAUAGUGCUAAGGGGGCCUGGAAGUUUGGACUGGGCAGAGCUCAACACAGCGUGGAAAAGUGGCUGUGGCUAGACUGCCUCUCUGGAUUCCUCGUCACUCAGCAGGGCAUCUCAGAGAGAAAUGCC [C76A U134A] | 0.84
UACGUAGGUGGUUUUCCCCUGAUAGUGCUAAGGGGGCCUGGAAGUUUGGACUGGGCAGAGCUCAACACAGCGUGGUAAAGUGGCUGUGGCUAGACUGCCUCUCUGGAUUCCUCGUCACUCAGCAGGGCAUCUCUGAGAGAAGUGCC [C76U A142G] | 2.37
UACGUAGGUGGUUUUCCCCUGAUAGUGCUAAGGGGGCCUGGAAGUUUGGACUGGGCAGAGCUCAACACAGCGUGGUAAAGUGGCUGUGGCUAGACUGCCUCUCUGGAUUCCUCGUCACUCAGCAGGGCGUCUCUGAGAGAAAUGCC [C76U A129G] | 2.87
UACGUAGGUGGUUUUCCCCUGAUAGUGCUAAGGGGGCCUGGAAGUUUGGACUGGGCAGAGCUCAACACAGCGUGGAAAAGUGGCUGUGGCUAGACUGCCUCUCUGUAUUCCUCGUCACUCAGCAGGGCAUCUCUGAGAGAAAUGCC [C76A G106U] | 1.2
UACGUAGGUGGUUUUCCCCUGAUAGUGCUAAGGGGGCCUGGAAGUUUGGACUGGGCAGAGCUCAACACAGCGUGGUAAAGUGGCUGUGGCUAGACUGCCUCUCUGGAUUCCUCGUCACUCAGCAGGGCAUCUCUGAUAGAAAUGCC [C76U G137U] | 1.87
UACGUAGGUGGUUUUCCCCUGAUAGUGCUAAGGGGGCCUGGAAGUUUGGACUGGGCAGAGCUCAACACAGCGUGGUUAAGUGGCUGUGGCUAGACUGCCUCUCUGGAUUCCUCGUCACUCAGCAGGGCAUCUCUGAGAGAAAUGCC [C76U A77U] | 2.05
UACGUAGGUGGUUUUCCCCUGAUAGUGCUAAGGGGGCCUGGAAGUUUGGACUGGGCAGAGCUCAACACAGCGUGUCAAAGUGGCCGUGGCUAGACUGCCUCUCUGGAUUCCUCGUCACUCAGCAGGGCAUCUCUGAGAGAAAUGCC [G75U U85C] | 0.07
UACGUAGGUGGUUUUCCCCUGAUAGUGCUAAGGGGGCCUGGAAGUUUGGACUGGGCAGAGCUCAACACAGCGUGGUAAAGUGGCUGUGGCUAGCCUGCCUCUCUGGAUUCCUCGUCACUCAGCAGGGCAUCUCUGAGAGAAAUGCC [C76U A94C] | 0.11
UACGUAGGUGGUUUUCCCCUGAUAGUGCUAAGGGGGCCUGGAAGUUUGGACUGGGCAGAGCUCAACACAGCGUGGUAAAGUGGCUGUGGCUAGACUGCCUCUCUGGAUUCCACGUCACUCAGCAGGGCAUCUCUGAGAGAAAUGCC [C76U U112A] | 2.4
UACGUAGGUGGUUUUCCCCUGAUAGUGCUAAGGGGGCCUGGAAGUUUGGACUGGGCAGAGCUCAACACAGCGUGGUAAAGUGGCUGUGGCUAGACUGCCUCUCUGGAUUCCUCGUCACUCAGCAGGGCAUCUCUGGGAGAAAUGCC [C76U A136G] | 1.75
UACGUAGGUGGUUUUCCCCUGAUAGUGCUAAGGGGGCCUGGAAGUUUGGACUGGGCAGAGCUCAACACAGCGUGGUAAAGUGGCUGUGGCUAGACUGCCUCUCUGGAUUCCUCGUCACCCAGCAGGGCAUCUCUGAGAGAAAUGCC [C76U U119C] | 2.91
UACGUAGGUGGUUUUCCCCUGAUAGUGCUAAGGGGGCCUGGAAGUUUGGACUGGGCAGAGCUCAACACAGCGUGGUAAAGUGGCUGUGGCUAGACUGCCUCUCUGGAUUCCUCGUCACUCAGCAGGGCAUCACUGAGAGAAAUGCC [C76U U132A] | 2.54
UACGUAGGUGGUUUUCCCCUGAUAGUGCUAAGGGGGCCUGGAAGUUUGGACUGGGCAGAGCUCAACACAGCGUGGAAAAGUGGCUGUGGCUAGACUGCCUCUCUGGAUUCCUCGUCACUCAGCAGGGCAUCUCUGAGAGAGAUGCC [C76A A141G] | 2.26
UACGUAGGUGGUUUUCCCCUGAUAGUGCUAAGGGGGCCUGGAAGUUUGGACUGGGCAGAGCUCAACACAGCGUGGUAAAGUGGCUGUGGCUAGACUGCCUCUCUGGAUUCCUCGUCACUCAGCAGGGCACCUCUGAGAGAAAUGCC [C76U U130C] | 2.22
UACGUAGGUGGUUUUCCCCUGAUAGUGCUAAGGGGGCCUGGAAGUUUGGACUGGGCAGAGCUCAACACAGCGUGGUAAAGUGGCUGUGGCUAGACUGCCUCUCUGGGUUCCUCGUCACUCAGCAGGGCAUCUCUGAGAGAAAUGCC [C76U A107G] | 2.53
UACGUAGGUGGUUUUCCCCUGAUAGUGCUAAGGGGGCCUGGAAGUUUGGACUGGGCAGAGCUCAACACAGCGUGGAAAAGUGGCUGUGGCUAGACUGCCUCUCUGGAUUCCUCGUCACUCAGCAGGGCAUCUCUGGGAGAAAUGCC [C76A A136G] | 1.79
UACGUAGGUGGUUUUCCCCUGAUAGUGCUAAGGGGGCCUGGAAGUUUGGACUGGGCAGAGCUCAACACAGCGUGGUAAAGUGGCUGUGGCUAGACUGCCCCUCUGGAUUCCUCGUCACUCAGCAGGGCAUCUCUGAGAGAAAUGCC [C76U U100C] | 2.91
UACGUAGGUGGUUUUCCCCUGAUAGUGCUAAGGGGGCCUGGAAGUUUGGACUGGGCAGAGCUCAACACAGCGUGGUAAAGUGGCUGUGGCUAGACUGUCUCUCUGGAUUCCUCGUCACUCAGCAGGGCAUCUCUGAGAGAAAUGCC [C76U C98U] | 0.61
UACGUAGGUGGUUUUCCCCUGAUAGUGCUAAGGGGGCCUGGAAGUUUGGACUGGGCAGAGCUCAACACAGCGUGGUAAAGUGGCUGUGGCUAGACUGCCUAUCUGGAUUCCUCGUCACUCAGCAGGGCAUCUCUGAGAGAAAUGCC [C76U C101A] | 1.6
